Article PMC7859635, “The “C3aR Antagonist” SB290157 is a Partial C5aR2 Agonist” (Frontiers in Pharmacology, 2021)

Columns and labels:
[1] = molecular target: human C3aR on Chinese hamster ovary cells stably expressing C3aR (CHO-C3aR) (human) (UniProt Q16581)
[2] = molecular target: human C3aR of human monocyte-derived macrophages (HMDMs) (human (endogenous in HMDMs)) (UniProt Q16581)
C5aR2 = molecular target: T1, C5aR2 (Homo sapiens, UniProt Q9P296); assay: BRET β-arrestin […] recruitment to C5aR2 in transfected HEK293 cells (partial agonist); assay type: cell-based
T1 construct: human C5aR2-Venus
T1 sequence (Q9P296 whole entry): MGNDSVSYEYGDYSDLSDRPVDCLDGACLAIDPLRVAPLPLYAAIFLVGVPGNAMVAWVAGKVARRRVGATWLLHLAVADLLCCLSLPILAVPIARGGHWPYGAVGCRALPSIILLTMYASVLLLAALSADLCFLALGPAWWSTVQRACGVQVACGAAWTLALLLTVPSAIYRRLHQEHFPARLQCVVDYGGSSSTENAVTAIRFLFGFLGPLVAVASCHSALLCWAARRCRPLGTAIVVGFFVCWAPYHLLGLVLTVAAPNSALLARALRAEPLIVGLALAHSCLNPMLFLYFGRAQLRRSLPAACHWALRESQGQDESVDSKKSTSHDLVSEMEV

purified human C3a, sequence (P01024 672-748): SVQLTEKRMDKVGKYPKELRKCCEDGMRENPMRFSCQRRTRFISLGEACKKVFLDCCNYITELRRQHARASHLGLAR
human C3aR of human monocyte-derived macrophages (HMDMs) (human (endogenous in HMDMs)), sequence (Q16581 whole entry): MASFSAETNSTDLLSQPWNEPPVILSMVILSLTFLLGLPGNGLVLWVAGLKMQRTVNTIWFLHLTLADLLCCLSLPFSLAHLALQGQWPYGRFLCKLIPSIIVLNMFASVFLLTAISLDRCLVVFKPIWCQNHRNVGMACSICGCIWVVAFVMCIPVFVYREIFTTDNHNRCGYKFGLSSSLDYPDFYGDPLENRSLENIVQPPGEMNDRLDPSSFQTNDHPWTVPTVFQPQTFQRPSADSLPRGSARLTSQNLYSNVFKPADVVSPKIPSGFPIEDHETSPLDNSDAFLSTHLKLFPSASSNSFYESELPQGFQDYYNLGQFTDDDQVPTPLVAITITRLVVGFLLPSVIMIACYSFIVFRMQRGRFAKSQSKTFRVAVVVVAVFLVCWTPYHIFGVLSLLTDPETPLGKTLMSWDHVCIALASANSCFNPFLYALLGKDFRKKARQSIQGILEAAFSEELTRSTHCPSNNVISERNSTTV
human C3aR on Chinese hamster ovary cells stably expressing C3aR (CHO-C3aR) (human), sequence (Q16581 whole entry): as above

phosphorylation of ERK1/2 in CHO-C3aR cells (AlphaLISA, 10 min), EC50 [1]	phosphorylation of ERK1/2 in HMDMs (AlphaLISA, 10 min), EC50 [2]	EC50 (C5aR2)	Compound
0.39 nM	0.21 nM	–	purified human C3a (from UniProt P01024 672-748) (ligand)
–	–	16100 nM	N=C(N)NCCC[C@H](NC(=O)COCC(c1ccccc1)c1ccccc1)C(=O)O [SB290157]
